The text below walks through data of US20250270339A1 (Alector, published 2025).

In test [1] the target is T1, Full length Mouse TfR on CHO cells (mouse, UniProt Q62351 1-763).
T1 construct: also called CHO + muTfR
Kind of test: FACS, CHO+muTfR. The procedure: (§1) A total of 1536 anti-TfR hybridoma supernatants were initially screened for their ability to differentially bind CHO cells overexpressing human or mouse TfR cells compared to CHO parental cells by FACS. Overexpressing cells were harvested, washed and labeled with Pacific Blue, FITC and Pacific Orange dyes (ThermoFisher) to create uniquely barcoded cell populations. Barcoded cells (5×10⁴ of each cell population) were aliquoted into 96-well U-bottom plates and incubated with 50 μl of hybridoma cell culture supernatant or […] of commercially available purified mouse anti-human TfR monoclonal antibody (Sigma Aldrich, Cat #SAB4700515) and rat anti-mouse TfR antibody (Invitrogen, Waltham, MA, Cat #R17217) on ice for 30 minutes. After this primary incubation, the supernatants were removed via centrifugation, the cells were washed twice with 175 μl of ice-cold FACS buffer (PBS+1% FBS+2 mM EDTA), and the cells were then further incubated on ice for 20 minutes with anti-mouse IgG Fc-allophycocyanin (APC) or anti-rat IgG Fc-APC (Jackson Labs, Cat #115-136-071 and Cat #112-136-071, respectively) (diluted 1:1000). Following this secondary antibody incubation, the cells were again washed twice with ice-cold FACS buffer and resuspended in a final volume of 50 μl of FACS buffer. Binding intensity on cells was analyzed using the FACS Canto system (BD Biosciences), and the ratio of APC Mean Fluorescence Intensity (MFI) on each barcoded cell population was determined for each anti-TfR hybridoma supernatant tested.
(Flow cytometry measures light scatter and fluorescence of single cells or particles in a stream.)

The target of test [2] is T2, Full length human TfR on CHO cells (human, UniProt P02786 1-760).
T2 construct: also called CHO + huTfR; CHO + hTfR
T2 sequence (P02786 whole entry): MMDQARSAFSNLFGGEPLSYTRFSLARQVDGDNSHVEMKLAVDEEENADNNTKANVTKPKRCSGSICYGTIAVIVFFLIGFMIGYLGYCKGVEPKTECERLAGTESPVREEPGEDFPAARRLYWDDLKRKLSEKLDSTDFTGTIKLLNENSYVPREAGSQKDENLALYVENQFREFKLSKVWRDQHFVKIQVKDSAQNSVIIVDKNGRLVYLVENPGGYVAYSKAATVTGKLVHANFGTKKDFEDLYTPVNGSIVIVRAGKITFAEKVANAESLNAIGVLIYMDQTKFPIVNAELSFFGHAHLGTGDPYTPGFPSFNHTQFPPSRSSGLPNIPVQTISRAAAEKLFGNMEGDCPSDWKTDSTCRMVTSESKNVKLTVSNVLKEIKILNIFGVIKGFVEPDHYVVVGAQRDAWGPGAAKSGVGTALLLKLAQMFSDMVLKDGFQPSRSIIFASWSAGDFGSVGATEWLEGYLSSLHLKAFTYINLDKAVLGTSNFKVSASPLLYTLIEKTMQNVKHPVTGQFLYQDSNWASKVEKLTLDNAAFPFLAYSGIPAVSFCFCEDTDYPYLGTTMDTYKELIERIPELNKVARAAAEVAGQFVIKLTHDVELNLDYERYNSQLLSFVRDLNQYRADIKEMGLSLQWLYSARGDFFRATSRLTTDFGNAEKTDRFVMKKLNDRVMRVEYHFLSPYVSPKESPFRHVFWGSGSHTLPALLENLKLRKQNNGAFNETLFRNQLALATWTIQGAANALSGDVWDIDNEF
The test is described as follows: FACS MFI, supernatant. The procedure: as §1

The target of test [3] is T1, Full length Mouse TfR on CHO cells. The test is described as follows: FACS MFI, supernatant. Here is the method:
as §1

Test [4] has as its target T3, huTfR Apical Domain-Avi-His (human, biotin on the Avi tag (BirA) where captured on streptavidin).
T3 construct: also called huTfR apical Avi-His; hTfR Apical
T3 chain: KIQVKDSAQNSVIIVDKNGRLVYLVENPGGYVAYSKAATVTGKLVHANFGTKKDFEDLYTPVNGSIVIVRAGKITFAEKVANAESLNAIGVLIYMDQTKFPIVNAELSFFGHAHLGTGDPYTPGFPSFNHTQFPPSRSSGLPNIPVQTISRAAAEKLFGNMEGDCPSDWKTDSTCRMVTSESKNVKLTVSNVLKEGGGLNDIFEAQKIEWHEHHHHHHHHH
Kind of test: ELISA OD450, supernatant. The procedure:
Hybridoma culture supernatants from 319 hybridomas obtained as described above were screened for their ability to bind Avi-His-tagged huTfR ECD, huTfR apical domain, and muTfR ECD (as described in Example 1) as compared to binding to an irrelevant Avi-His-tagged control protein. Briefly, 96-well polystyrene plates were coated with 5 μg/ml of streptavidin (Thermo Fisher, Cat #PI21125) in coating buffer (0.05M carbonate buffer, pH 9.6, Sigma, Cat #C3041) overnight at 4° C. Coated plates were then blocked with ELISA diluent (PBS+0.5% BSA+0.05% Tween20) for one hour. Blocking buffer was removed and Avi-His-tagged human TfR, human TfR apical domain, mouse TfR and an irrelevant Avi-His-tagged protein were added at 1 μg/ml in ELISA diluent and captured for 1 hour at room temperature. After washing three times with 300 μl of PBST (PBS+0.05% Tween20, Thermo 28352), the hybridoma cell culture supernatants were added (50 μl/well) to each well. After 30 minutes of incubation at room temperature, the plates were washed three times with 300 μl of PBST. Anti-mouse IgG Fc-HRP or anti-rat IgG Fc-HRP (Jackson Immunoresearch, Cat #115-035-071 and 112-036-071, respectively) secondary antibodies were diluted 1:5000 in ELISA diluent, added to each well at 50 μl/well, and incubated for 30 minutes at room temperature with shaking. After a final set of washes (3×300 μl in PBST), 50 μl/well of BioFx TMB substrate (Surmodics, Cat #TMBW-1000-01) was added to the wells. The reaction was then quenched after 5-10 mins with 50 μl/well of 2N sulfuric acid. The plates were read for absorbance at 450 nm on a SpectraMax M5 (Molecular Devices, Sunnyvale, CA) using SoftMax Pro software.
A general note: An ELISA detects its analyte on a solid surface through an enzyme-linked reagent.

T1 sequence (Q62351 whole entry): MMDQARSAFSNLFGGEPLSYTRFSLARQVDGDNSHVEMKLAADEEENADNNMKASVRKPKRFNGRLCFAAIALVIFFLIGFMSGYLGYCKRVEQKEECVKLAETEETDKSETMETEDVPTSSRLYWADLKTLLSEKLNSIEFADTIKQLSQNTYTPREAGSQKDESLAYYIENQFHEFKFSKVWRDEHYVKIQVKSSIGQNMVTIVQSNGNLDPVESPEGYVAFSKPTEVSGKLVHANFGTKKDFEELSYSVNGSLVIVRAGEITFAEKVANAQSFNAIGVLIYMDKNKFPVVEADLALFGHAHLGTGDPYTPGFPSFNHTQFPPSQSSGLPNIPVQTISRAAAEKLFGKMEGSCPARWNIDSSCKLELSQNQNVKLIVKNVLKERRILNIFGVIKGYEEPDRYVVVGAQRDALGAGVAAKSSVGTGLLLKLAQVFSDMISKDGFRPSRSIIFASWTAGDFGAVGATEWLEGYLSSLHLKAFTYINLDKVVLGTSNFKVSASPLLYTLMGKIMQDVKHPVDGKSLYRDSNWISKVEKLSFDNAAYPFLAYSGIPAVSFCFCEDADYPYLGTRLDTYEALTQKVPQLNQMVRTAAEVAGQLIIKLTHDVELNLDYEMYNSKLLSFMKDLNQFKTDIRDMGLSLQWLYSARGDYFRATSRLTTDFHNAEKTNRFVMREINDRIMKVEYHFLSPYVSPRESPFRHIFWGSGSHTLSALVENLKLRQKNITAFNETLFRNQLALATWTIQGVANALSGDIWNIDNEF

B1: TfR13 (mouse hybridoma antibody) (antibody, V domains shown)
VH: DVKLVESGGGLVKPGGSLKLSCAASGFTFSSYTMSWVRQTPEKRLEWVATISSGGSYTYFPDSVKGRFTISRDNAKNTLYLQMSSLKSEDTAIYYCTRAHYYAYDYWGQGTTLTVSS
VL: DILLTQSPAILSVSPGERVSFSCRASQSIGTSIHWYQQRTNGSPRLLIKYASGSISGIPSRFSGSGSGTDFTLSINSVESEDIADYYCQQSNSWPTSTFGAGTKLELK
notes: mouse IgG in hybridoma supernatant
On to B1, for which the binding result in test [1] is listed as “no binding”. The entries for the “fold over parental (CHO WT)” value in test [2] and in test [3] were 392 fold and 1 fold, respectively. Besides, the “ratio over irrelevant protein” value in test [4] came to 22 fold.

B2: TfR11 (mouse hybridoma antibody) (antibody, V domains shown)
VH: EVQLQQSGTVLARPGASVKMSCKASGYSFTSYWMHWVKQRPGQGLEWIGAIFPGNIDTIYNQKFKDKAKLTAVTSASTAYMELSSLTNEDSAVYFCTRLYYDYVWGAGTTVTVSS
VL: DIKMTQSPSSMYASLGERVTLTCKASQDINSYLSWFQQKPGKSPKTLIYHVNRLVDGVPSRFSGSGSGQDYSLTISSLEYEDMGIYYCLQYDEFPYTFGGGTKLEIK
notes: as for B1
As to B2, in test [1], the binding result is on record as “no binding”. Further, the “fold over parental (CHO WT)” value in test [2] stood at 290 fold; in test [3], 1 fold. Moreover, the “ratio over irrelevant protein” value in test [4] came out at 39 fold.

B3: TfR16 (mouse hybridoma antibody) (antibody, V domains shown)
VH: EVQLQQSGTVLARPGASVKMSCKTSGYSFSSYWMHWVKQRPGQGLEWIGTIYPGNSDTIYNQNFKGKAKLTAVTSASTAYMELSSLTNEDSAVYYCSTIYYFSNWGQGTTLTVSS
VL: DIKMTQSPSPMFASLGERVTITCKASQDINSYLSWFQQKPGKSPKTLIYRANRLLDGVPSRFSGSGSGQDYSLTISSLDYEDVGIYYCLQYDVFPYTFGGGTKLEIK
notes: as for B1
For the molecule B3, the binding result in test [1] is reported as “no binding”. The “fold over parental (CHO WT)” value was 534 fold in test [2] and 1 fold in test [3]. Also, the “ratio over irrelevant protein” value in test [4] was 18 fold.

B4: TfR15 (mouse hybridoma antibody) (antibody, V domains shown)
VH: QVQLQQPGSELVRPGASVKLSCKASGYTFTSYWMHWVKQRPGQGLEWIGNIYPGSGSSNYDEKFKSKATLTVDTSSSTAYMQLNSLTSEDSAVYYCTRSSYYGNFDTMDNWGQGTSVTVSS
VL: QIVLTQSPAIMSASPGEKVTMTCSASSSIRYMNWYQQKPVTSPKRWIYDTSTLASGVPARFSGSGSGTSYSLTISSMEAEDAATYYCHQRSSYPWTFGGGTKLEIK
notes: as for B1
On to B4, for which the binding result in test [1] is on record as “no binding”. The “fold over parental (CHO WT)” value in test [2] is 119 fold; in test [3] it was 1 fold. In addition, the “ratio over irrelevant protein” value in test [4] came to 34 fold.

B5: TfR22 (mouse hybridoma antibody) (antibody, V domains shown)
VH: DVQLQESGPGLVKPSQSLSLTCTVTGYSITSDYAWNWIRQFPGNKLEWMGYISYSGSTRYNPSLKSRISITRDTSKNQFFLQLNSVTTEDTATYYCTSWGYRYLEDYWGQGTSVTVSA
VL: QIVLTQSPAIMSASPGERVTMTCSASSSISSMHWYQQKPGTSPKKWIYDTSKLASGVPARFSGSGSGTSYSLTISSMEAEDAATYYCHQRSSYPWTFGGGTKLEIK
notes: as for B1
For B5, the binding result in test [1] is on record as “no binding”. For the same molecule, the “fold over parental (CHO WT)” value was 290 fold in test [2] and 1 fold in test [3]. Moreover, the “ratio over irrelevant protein” value in test [4] was determined as 33 fold.

B6: TfR28 (mouse hybridoma antibody) (antibody, V domains shown)
VH: DVQLQESGPGLVKPSQSLSLTCTVTGYSITSDYAWNWIRQFPGNKLEWMGYISYSGSTSYNPSLRSRISITRDTSKNQFFLQLNSVTTEDTATYYCAIRGYRYEEDYWGQGTTLTVSS
VL: QIVLTQSPAIMSASPREKVTMTCSASSSISSMHWYQQKPGTSPKRWIYDTSKLASGVPARFSGSGSGTSYSLTISSMEAEDAATYYCHQRSSYPWTFGGGTKLEIK
notes: as for B1
For B6, the binding result in test [1] is “no binding”. Further, the results for the “fold over parental (CHO WT)” value in test [2] and in test [3] were 157 fold and 1 fold, respectively. In addition, the “ratio over irrelevant protein” value in test [4] is 30 fold.

B7: TfR27 (mouse hybridoma antibody) (antibody, V domains shown)
VH: QVQLQQPGSELVRPGASVKLSCKASGYTFTSYWMHWVKQRPGQGLEWIGNIYPGTGSTNYDEKFKSKATLTVDTSSSTAYMQLSSLTSEDSAVYYCTRSSYYGNFDTMDYWGQGTSVTVSS
VL: QIFLTQSPAIMSASPGERVTMTCSASSSIRYMNWYQQKPGTSPKRWIYDTSELASGVPARFTGSGSGTSYSLTISSMEAEDAATYYCHQRSGYPWTFGGGTKLEIK
notes: as for B1
For the molecule B7, in test [1], the binding result is “no binding”. Moreover, the results for the “fold over parental (CHO WT)” value in test [2] and in test [3] were 279 fold and 1 fold, respectively. In addition, the “ratio over irrelevant protein” value in test [4] turned out to be 34 fold.

B8: TfR23 (mouse hybridoma antibody) (antibody, V domains shown)
VH: DVQLQESGPGLVKPSQSLSLTCTVTGYSITSDYAWNWIRQFPGNKLEWMGYISYSGSTSYNPSLKSRISITRDTSKNQFFLQLNSVTTEDTATYYCTSWGYRYLEDYWGQGTSVTVSS
VL: QIVLTQSPAIMSASPGERVTMTCSASSSISSLHWYQQKPGTSPKKWIYDTSKLASGVPARFSGSGSGTSYSLAISSMEAEDAATYYCHQRSSYPWTFGGGTKLEIK
notes: as for B1
As to B8, the binding result in test [1] is listed as “no binding”. Also, the results for the “fold over parental (CHO WT)” value in test [2] and in test [3] were 279 fold and 1 fold, respectively. The “ratio over irrelevant protein” value in test [4] is 31 fold.

B9: TfR17 (mouse hybridoma antibody) (antibody, V domains shown)
VH: DVQLQESGPGLVKPSQSLSLTCTVTGYSITSDYAWNWIRQFPGNKLEWMGYISYSGSTSYNPSLKSRISITRDTSKNQFFLQLNSVTTEDTATYYCASWGYRYLEDYWGQGTSVTVSS
VL: QIVLTQSPAIMSASPGEKVTMTCSASSSISSMHWYQQKPGTSPKRWISDTSKLASGIPARFSGSGSGTSYSLTISSMAAEDAAAYYCHQRSSYPWTFGGGTKLEIK
notes: as for B1
Turning to B9, in test [1], the binding result is “no binding”. For the same molecule, the “fold over parental (CHO WT)” value came out at 73 fold in test [2] and 1 fold in test [3]. Moreover, in test [4], the “ratio over irrelevant protein” value is 26 fold.

B10: TfR10 (mouse hybridoma antibody) (antibody, V domains shown)
VH: QVQLQQSGPELVKPGASVKMSCKASGYTFTSYYIHWVKQRPGQGLEWIGWIYPGDGNTNYNEKFKGKTTLTADKSSSTAYMLLSSLTSEDSAIYFCARDGSIPFAYWGQGTLVTVSA
VL: DIVMTQSPSSLTVTAGEKVTMSCKSSQSLLNSGNQKNYLTWYQQKPGQPPKLLIYWASTRESGVPDRFTGSGSGTDFTLTISSVQAEDLAVYYCQNDYSYPLTFGAGTKLELK
notes: as for B1
On to B10, for which the binding result in test [1] is recorded as “no binding”. In addition, the “fold over parental (CHO WT)” value in test [2] turned out to be 389 fold; in test [3] it was 1 fold. In test [4], the “ratio over irrelevant protein” value was 35 fold.

B11: TfR24 (mouse hybridoma antibody) (antibody, V domains shown)
VH: QVQLQQSGPELVKPGTSVKMSCKASGYTFTSYYIHWVKQRPGQGLEWIGWIYPGDDNTHYNENFKGKTTLTADKSSSTAYMLLSSLTSEDSAIYFCARDYYGRFAYWGQGTLVTVSA
VL: DIVMTQSPSSLTVTAGERVTMSCKSSQSLLNSGNQKNYLTWFQQKPGQPPKLLIYWASTRESGVPDRFTGSGSGTDFTVTISSVQAEDLAVYYCQNDYGYPLTFGAGTKLELK
notes: as for B1
As for B11, the binding result in test [1] is “no binding”. Also, the “fold over parental (CHO WT)” value in test [2] was found to be 370 fold; in test [3], 1 fold. The “ratio over irrelevant protein” value in test [4] was 31 fold.
